Results taken from doi:10.1101/2025.08.27.672337, “Cyclin-dependent kinase-like 5 (CDKL5) binds to talin and is anchored at the postsynaptic density via direct interaction with PDZ domains” (bioRxiv, 2025).
Values joined by “and” are separate entries in the source; they are usually repeats but may differ in a detail not shown here. Identical values can stand only once. Where no end group is shown, it is not given here. maleimide‑fluorescein = Maleimide-fluorescein dye, coupled to a cysteine thiol

Experiments:
Conditions in all cases: both partners purified
SHANK1 PDZ domain [1] = target: T1, SHANK1 PDZ domain (mouse, UniProt D3YZU1 654-762); assay: fluorescence polarisation; dye-labelled peptide against a twofold serial dilution of the protein in PBS (10 mM Na2HPO4, 1.8 mM KH2PO4, pH 7.4, 137 mM NaCl, 2.7 mM KCl), 25°C; one-site total binding fit; triplicate
T1 construct: SHANK1 PDZ domain, mouse, UniProt D3YZU1, residues 654-762; Expressed from pET151; His-tag removed with AcTEV protease; 15N-labelled for NMR
T1 sequence (looked up): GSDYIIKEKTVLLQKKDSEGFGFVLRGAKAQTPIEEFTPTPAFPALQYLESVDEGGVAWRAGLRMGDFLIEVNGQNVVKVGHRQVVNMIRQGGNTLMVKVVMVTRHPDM

SHANK2 PDZ domain [2] = target: T2, SHANK2 PDZ domain (mouse, UniProt Q80Z38 247-340); assay: as above
T2 construct: SHANK2 PDZ domain, mouse, UniProt Q80Z38, residues 247-340; Expressed from pET151; His-tag removed with AcTEV protease; 15N-labelled for NMR
T2 sequence (looked up): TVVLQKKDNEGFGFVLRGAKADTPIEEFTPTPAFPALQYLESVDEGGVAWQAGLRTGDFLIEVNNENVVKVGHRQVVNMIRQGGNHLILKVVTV

SHANK3 PDZ domain = target: T3, SHANK3 PDZ domain (mouse, UniProt Q4ACU6 570-664); assay: as above
T3 construct: SHANK3 PDZ domain, mouse, UniProt Q4ACU6, residues 570-664; Expressed from pET151; His-tag removed with AcTEV protease
T3 sequence (looked up): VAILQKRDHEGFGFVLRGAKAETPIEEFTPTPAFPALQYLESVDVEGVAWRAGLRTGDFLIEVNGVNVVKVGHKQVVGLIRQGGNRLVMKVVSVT

PSD-95 PDZ2 domain [3] = target: T4, PSD-95 PDZ2 domain (human, UniProt P78352 155-249); assay: as above
T4 construct: PSD-95 (postsynaptic density protein 95) PDZ2, human, UniProt P78352, residues 155-249; codon optimised synthetic gene; Expressed from pET151; His-tag removed with AcTEV protease; 15N-labelled for NMR; also called PDZ2 of PSD-95
T4 sequence (P78352 155-249): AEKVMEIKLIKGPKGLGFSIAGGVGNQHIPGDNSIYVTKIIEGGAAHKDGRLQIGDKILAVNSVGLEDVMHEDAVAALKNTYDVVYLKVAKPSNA

PSD-95 PDZ3 domain [4] = target: T5, PSD-95 PDZ3 domain (human, UniProt P78352 302-402); assay: as above
T5 construct: PSD-95 (postsynaptic density protein 95) PDZ3, human, UniProt P78352, residues 302-402; codon optimised synthetic gene; Expressed from pET151; His-tag removed with AcTEV protease; 15N-labelled for NMR; also called PDZ3 of PSD-95
T5 sequence (P78352 302-402): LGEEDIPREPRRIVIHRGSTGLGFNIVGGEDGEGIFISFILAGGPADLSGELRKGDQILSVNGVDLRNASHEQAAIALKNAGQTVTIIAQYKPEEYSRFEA

talin1 R7R8 [5] = target: T6, talin1 R7R8 (mouse, UniProt P26039 1357-1659); assay: as above
T6 construct: talin1 rod domains R7R8, mouse, UniProt P26039, residues 1357-1659; Expressed from pET151; His-tag removed with AcTEV protease; 15N-labelled for NMR; also called talin R7R8
T6 sequence (P26039 1357-1659): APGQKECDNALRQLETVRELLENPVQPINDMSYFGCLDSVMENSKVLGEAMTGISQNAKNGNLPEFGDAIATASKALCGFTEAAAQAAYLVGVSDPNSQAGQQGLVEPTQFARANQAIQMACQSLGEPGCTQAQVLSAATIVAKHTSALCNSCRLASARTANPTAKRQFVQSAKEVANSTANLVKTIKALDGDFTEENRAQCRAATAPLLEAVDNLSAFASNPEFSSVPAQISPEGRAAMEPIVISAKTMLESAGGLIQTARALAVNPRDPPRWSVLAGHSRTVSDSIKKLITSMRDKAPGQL

SHANK1 PDZ domain [6] = target: T1, SHANK1 PDZ domain; assay: NMR titration; 15N-HSQC of 15N-labelled protein at 150 µM with peptide added (1:0.5 to 1:5 molar ratios); 12 mM NaH2PO4, 6 mM Na2HPO4, pH 6.5, 50 mM NaCl, 2 mM DTT, 5% D2O, 298K
SHANK2 PDZ domain [7] = target: T2, SHANK2 PDZ domain; assay: as above
PSD-95 PDZ2 domain [8] = target: T4, PSD-95 PDZ2 domain; assay: as above
PSD-95 PDZ3 domain [9] = target: T5, PSD-95 PDZ3 domain; assay: as above
talin1 R7R8 [10] = target: T6, talin1 R7R8; assay: as above
talin1 R8 = target: T7, talin1 R8 (mouse, UniProt P26039 1461-1580); assay: as above
T7 construct: talin1 rod domain R8, mouse, UniProt P26039, residues 1461-1580; Expressed from pET151; His-tag removed with AcTEV protease; 15N-labelled for NMR; also called talin R8; R8 rod domain of talin
T7 sequence (P26039 1461-1580): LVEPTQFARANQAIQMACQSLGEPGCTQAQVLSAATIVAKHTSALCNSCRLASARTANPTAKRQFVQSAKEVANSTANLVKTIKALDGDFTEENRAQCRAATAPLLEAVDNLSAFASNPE

B1: CDKL5-1^941-960 peptide, fluorescein-labelled (peptide)
peptide: C(maleimide‑fluorescein)YNRTNRSRMPNLNDLKETAL
notes: single non-native N-terminal cysteine for coupling the dye; ends in -ETAL (957-960); also called CDKL5-1 C-terminal tail peptide; CDKL5 isoform 1 C-terminus; source: synthetic peptide (GLBiochem, Shanghai)
Kd (SHANK1 PDZ domain [1]): 8.5 µM and 7.6 µM | Kd (SHANK2 PDZ domain [2]): 5.2 µM | Kd (SHANK3 PDZ domain): 8.6 µM | Kd (PSD-95 PDZ2 domain [3]): 31.3 µM | Kd (PSD-95 PDZ3 domain [4]): 40.7 µM

B2: CDKL5^213-234 peptide, dye-labelled for FP (peptide)
peptide: C(maleimide‑fluorescein)GESEIDQLFTIQKVLGPLPSEQ
notes: single non-native N-terminal cysteine for coupling the dye; source: synthetic peptide (GLBiochem, Shanghai)
fold weaker affinity than CDK1^206-223 with talin1 R7R8 (talin1 R7R8 [5]): 2.5 fold

B3: CDKL5-1^941-960 peptide, unlabelled (peptide)
peptide: CYNRTNRSRMPNLNDLKETAL
notes: single non-native N-terminal cysteine with which the synthetic peptides were designed; ends in -ETAL (957-960); Used unlabelled in NMR; also called CDKL5-1 C-terminal tail peptide; CDKL5-1 peptide; source: synthetic peptide (GLBiochem, Shanghai)
binding result (SHANK1 PDZ domain [6]): binds | binding result (SHANK2 PDZ domain [7]): binds | binding result (PSD-95 PDZ2 domain [8]): binds | binding result (PSD-95 PDZ3 domain [9]): binds

B4: CDKL5^213-234 peptide (NMR) (peptide)
peptide: CGESEIDQLFTIQKVLGPLPSEQ
notes: single non-native N-terminal cysteine with which the synthetic peptides were designed; source: synthetic peptide (GLBiochem, Shanghai)
binding result (talin1 R7R8 [10]): binds | binding result (talin1 R8): binds
